Patent US20220267415A1 (University of Texas, published 2022)
“And” between values parts separate entries of the source, which are not always exact repeats. Equal values may be shown once. Read-outs that look alike come from different tables or passages of the source.

How the values were obtained:
[1] = molecular target: T1, SARS-CoV-2 spike protein, wild type, on live virus (SARS-CoV-2-mNG / USA-WA1/2020) (SARS-CoV-2, UniProt P0DTC2 13-1273); assay: cell-based or functional assay
[2] = molecular target: T1, SARS-CoV-2 spike protein, wild type, on …; assay: cell-based or functional assay; remark: listed apart in the source
[3] = molecular target: T1, SARS-CoV-2 spike protein, wild type, on …; assay: cell-based or functional assay; remark: listed apart in the source
[4] = molecular target: T2, recombinant SARS-CoV-2 Receptor Binding Domain (RBD) with a his tag (ATUM, Cat. 65639.1.a) (SARS-CoV-2, UniProt P0DTC2 319-541); assay: ELISA on coated RBD-his
[5] = molecular target: T3, recombinant Spike protein (Sino Biologicals Cat #40589-V08B1) (SARS-CoV-2, UniProt P0DTC2 13-1213); assay: BLI (Octet), avidity to spike
[6] = molecular target: T2, recombinant SARS-CoV-2 Receptor Binding …
[7] = molecular target: T3, recombinant Spike protein (Sino …); assay: BLI (Octet), His-tagged S on Ni-NTA sensor, avidity
[8] = molecular target: T3, recombinant Spike protein (Sino …); assay: ELISA on coated recombinant spike
[9] = molecular target: T1, SARS-CoV-2 spike protein, wild type, on …; assay: cell-based or functional assay; remark: listed apart in the source
[10] = molecular target: T1, SARS-CoV-2 spike protein, wild type, on …; assay: cell-based or functional assay; remark: listed apart in the source
[11] = molecular target: T1, SARS-CoV-2 spike protein, wild type, on …; assay: cell-based or functional assay; remark: listed apart in the source
[12] = molecular target: T2, recombinant SARS-CoV-2 Receptor Binding …; remark: listed apart in the source

B1: anti-SARS-CoV2-06 IgM (lambda-VL-kappa-CL hybrid light chain) (antibody)
VH: QVELQESGPGLVKPSGTLSLTCAVSGGSISSNNWWTWVRQPPGKGLEWIGEIHHSGGTNYNPSLKSRVTMSVDKSKNQFSLNLYSVTAADTAVYYCTRDRAGGTYSGFDFWGQGTLVTVSS
VL: QAVVTQPASVSGSPGQSITISCTGTSSDVGGYNYVSWYQQHPGKAPKLMIYDVSNRPSGVSNRFSGSKSGNTASLTISGLQAEDEADYYCSSYTSSSTVVFGGGTKVTVL
chain: not shown
[1]
  Neutralization EC50: 0.059 µg/mL
[2]
  EC50 (neutralization of live SARS-CoV-2-mNG): 0.06 µg/ml and 0.067 nM
  Fold change of neutralization EC50 in nM (IgM-06 against IgG-06): 14.9 fold
  Fold change of neutralization EC50 in µg/ml (IgM-06 against IgG-06): 2.5 fold

B2: anti-SARS-CoV2-06 IgG (lambda-VL-kappa-CL hybrid light chain) (antibody, V domains shown)
VH: B1 VH
VL: B1 VL
[1]
  Neutralization EC50: 0.22 µg/mL
[2]
  EC50 (neutralization of live SARS-CoV-2-mNG): 0.15 µg/ml and 1 nM

B3: anti-SARS-CoV2-14 IgG (lambda-VL-kappa-CL hybrid light chain) (antibody, V domains shown)
VH: EVQLQQSGPGLVKPSQTLSLTCAISGDSVSSNSAAWNWIRQSPSRGLEWLGRTYYRSKWYNDYAVSVKSRITINPDTSKNQFSLQLNSVTPEDTAVYYCAREEQQLVHDYYYYGMDVWGQGTMVTVSS
VL: QAVVTQPASVSGSPGQSITISCTGTSSDIGAYNYISWYQQHPGKAPKLIIYEVSNRPSGISYRFSGSKSGNTASLTISGLQAEDEANYYCSSYAGSISFGGGTKVTVL
[3]
  EC50 (neutralization of live SARS-CoV-2-mNG): 2.6 nM and 0.39 µg/ml
[1]
  Neutralization EC50: 0.39 µg/mL

B4: anti-SARS-CoV2-14 IgA2m2 (antibody)
VH: B3 VH
VL: B3 VL
chain: not shown
[4]
  EC50: 14 nM

B5: anti-SARS-CoV2-14 IgM (lambda-VL-kappa-CL hybrid light chain) (antibody)
heavy: EVQLQQSGPGLVKPSQTLSLTCAISGDSVSSNSAAWNWIRQSPSRGLEWLGRTYYRSKWYNDYAVSVKSRITINPDTSKNQFSLQLNSVTPEDTAVYYCAREEQQLVHDYYYYGMDVWGQGTMVTVSSGSASAPTLFPLVSCENSPSDTSSVAVGCLAQDFLPDSITFSWKYKNNSDISSTRGFPSVLRGGKYAATSQVLLPSKDVMQGTDEHVVCKVQHPNGNKEKNVPLPVIAELPPKVSVFVPPRDGFFGNPRKSKLICQATGFSPRQIQVSWLREGKQVGSGVTTDQVQAEAKESGPTTYKVTSTLTIKESDWLSQSMFTCRVDHRGLTFQQNASSMCVPDQDTAIRVFAIPPSFASIFLTKSTKLTCLVTDLTTYDSVTISWTRQNGEAVKTHTNISESHPNATFSAVGEASICEDDWNSGERFTCTVTHTDLPSPLKQTISRPKGVALHRPDVYLLPPAREQLNLRESATITCLVTGFSPADVFVQWMQRGQPLSPEKYVTSAPMPEPQAPGRYFAHSILTVSEEEWNTGETYTCVVAHEALPNRVTERTVDKSTGKPTLYNVSLVMSDTAGTCY
VL: B3 VL
chain: not shown
[3]
  EC50 (neutralization of live SARS-CoV-2-mNG): 0.01 µg/ml and 0.011 nM
  Fold change of neutralization EC50 in nM (IgM-14 against IgG-14): 236 fold
  Fold change of neutralization EC50 in µg/ml (IgM-14 against IgG-14): 39 fold
[5]
  fold change of KD (IgM-14 against IgG-14): 13.6 fold
  fold change of Kdis (IgM-14 against IgG-14): 0.26 fold
  fold change of Kon (IgM-14 against IgG-14): 3.59 fold
[6]
  EC50 (read off the curve): ~0.7 nM
[7]
  Kd: 0.102 nM
  koff: 0.00034 s⁻¹
  kon: 3.35e+06 M⁻¹ s⁻¹
[1]
  Neutralization EC50: 0.015 µg/mL
[8]
  EC50: 0.046 nM
  fold change of ELISA EC50 (IgM-14 against IgG-14): 135 fold
[4]
  EC50: 0.7 nM

B6: anti-SARS-CoV2-14 IgA1 (antibody)
VH: B3 VH
VL: B3 VL
chain: not shown
[4]
  EC50: 1.9 nM

B7: anti-SARS-CoV2-14 IgG (full lambda light chain) (antibody, V domains shown)
VH: B3 VH
VL: B3 VL
[9]
  Neutralization EC50: 0.6 µg/mL
[10]
  Neutralization EC50 (PRNT): 0.51 µg/mL
[11]
  Neutralization EC50 (PRNT): 0.32 µg/mL

B8: anti-SARS-CoV2-26 IgA1 (antibody)
VH: not shown
VL: QSALTQPPSASGTPGQRVTISCSGSSSNIGSNSVNWYQQVPGTAPKLLIYANDHRPSGVPDRFSGSKSGTSASLAISGLQSEDEADYYCAAWDNSLKGVVFGGGTKVTVL
chain: not shown
[4]
  EC50: 1.8 nM

B9: anti-SARS-CoV2-26 IgA2m2 (antibody)
VH: not shown
VL: B8 VL
chain: not shown
[4]
  EC50: 38 nM

B10: anti-SARS-CoV2-16 IgM (antibody)
VH: QVQLHQWGAGLLKPSETLSRTCAVYGGSFSGYYWTWIRQAPGKGLEWIGEINHGGSTRYNPSLESRVSISVDTSKKQFSLELRSVTAADTAIYYCARGYDTNWYGDGYNWFDPWDRGTLVTVSS
VL: QAVVTQPPSVSGTPGQRVTISCSGSSSSIGSNTVHWYQHLPGTAPKLLMYNNNERPSGVPARFSGSKSGTSASLVITGLQADDEAEYYCQSYDTGLSGHVFGSGTELTVL
chain: not shown
[12]
  EC50 (read off the curve): ~0.3 nM
[4]
  EC50: 0.3 nM

B11: anti-SARS-CoV2-16 IgA2m2 (antibody)
VH: B10 VH
VL: B10 VL
chain: not shown
[12]
  EC50 (read off the curve): ~0.6 nM
[4]
  EC50: 0.6 nM

B12: anti-SARS-CoV2-16 IgA1 (antibody)
VH: B10 VH
VL: B10 VL
chain: not shown
[12]
  EC50 (read off the curve): ~0.5 nM
[4]
  EC50: 0.6 nM

B13: anti-SARS-CoV2-09 IgA2m2 (antibody)
VH: B10 VH
VL: QSALTQDPSVSVALGQTVRITCQGDSLRGSFASWYRQKPGQAPVLVIFGINNRPSGVPDRFSGSSSGNTASLTITGAQAEDEADYYCNSRESNSNRILFGGGTKVTVL
chain: not shown
[4]
  EC50: 1.4 nM

B14: anti-SARS-CoV2-09 IgA1 (antibody)
VH: B10 VH
VL: B13 VL
chain: not shown
[4]
  EC50: 1 nM

B15: anti-SARS-CoV2-14 IgM (full lambda light chain) (antibody)
heavy: B5 heavy
light: QAVVTQPASVSGSPGQSITISCTGTSSDIGAYNYISWYQQHPGKAPKLIIYEVSNRPSGISYRFSGSKSGNTASLTISGLQAEDEANYYCSSYAGSISFGGGTKVTVLGQPKAAPSVTLFPPSSEELQANKATLVCLISDFYPGAVTVAWKADSSPVKAGVETTTPSKQSNNKYAASSYLSLTPEQWKSHRSYSCQVTHEGSTVEKTVAPTECS
chain: not shown
[9]
  Neutralization EC50: 0.0046 µg/mL
[10]
  Fold-Increase in potency of IgM over IgG: 46 fold
  Neutralization EC50 (PRNT): 0.011 µg/mL
[11]
  Fold-Increase in potency of IgM over IgG: 61 fold
  Neutralization EC50 (PRNT): 0.0052 µg/mL
